Laboratory results published in paper PMC10095184.

Legend:
[1] = tested on: NS5-6xHis AHSV-4 (African horse sickness virus 4); assay: pull-down RT-qPCR
[2] = tested on: NS5-6xHis BTV-1 (Bluetongue virus 1); assay: pull-down RT-qPCR

Work on BTV-1 Seg-1 mRNA yielded a binding signal (Ct (ctrl 14.81)) [1] of 11.3, a binding signal (Ct (ctrl 18.09)) [1] of 11.6 and a binding signal (Ct (ctrl 14.81)) [2] of 10.8. It also gave a binding signal (Ct (ctrl 18.09)) [2] of 10.9.
BTV-1 Seg-3 mRNA gave a binding signal (Ct (ctrl 19.32)) [1] of 11.9, a binding signal (Ct (ctrl 19.87)) [1] of 11.8 and a binding signal (Ct (ctrl 19.32)) [2] of 11.2. The binding signal (Ct (ctrl 19.87)) [2] was 11.5.
BTV-1 Seg-7 mRNA showed a binding signal (Ct (ctrl 16.17)) [1] of 11.8, a binding signal (Ct (ctrl 16.39)) [1] of 10.9 and a binding signal (Ct (ctrl 16.17)) [2] of 11.1. It also gave a binding signal (Ct (ctrl 16.39)) [2] of 10.2.
